B1: ParESO (SO_1444), toxin of the ParESO-CopASO type II toxin-antitoxin system of prophage CP4So (natural protein, Shewanella oneidensis)
chain: MPQIVFTATALRDLERLREFLRSKNPPAAQRAASAIINTIRKLESYPDIGRPIDDNDFSFRELLIDFGDTGYLAMYQYDGGERLTVLCIRHQKEAGY
modifications: selenomethionine-substituted in the crystal
notes: also called ParESO (I); ParESO (II)
B2: CopASO (SO_1445), antitoxin of the ParESO-CopASO type II toxin-antitoxin system of prophage CP4So (natural protein, Shewanella oneidensis, UniProt Q8EGZ2 1-102, looked up)
chain: MSTIKPVSVKLDADIKARVEHLAETRKRSSHWMMREAIREYVEREEKREALQQEALRAWEEHQTSGLHVTGDEVVSWLESWGSENEQAALHATNSLHCHCIT
modifications: selenomethionine-substituted in the crystal
notes: CopASO (SO_1445), antitoxin of prophage CP4So, Shewanella oneidensis; called full-length in the complex; 93 residues modelled in CopASO (I), 77 in CopASO (II); also called CopASO (I); CopASO (II)

Key:
[1] = system: CopASO;ParESO (in purified ParESO-CopASO complex) (Shewanella oneidensis (prophage CP4So);Shewanella oneidensis (prophage CP4So)); assay: ITC; details: ITC: 20 mM Tris pH 8.0, 100 mM NaCl, 5% (v/v) glycerol, 20 °C; 100-400 uM DNA injected into 10-100 uM protein; one-site model
[2] = system: CopASO (Shewanella oneidensis (prophage CP4So)); assay: ITC; details: ITC: 20 mM Tris pH 8.0, 100 mM NaCl, 5% (v/v) glycerol, 20 °C; 100-400 uM DNA injected into 10-100 uM protein; one-site model
[3] = target: B2; assay: crystal structure; Se-Met ParESO-CopASO complex, crystallised in 20% PEG3350, 0.2 M tri-sodium citrate at 20 °C; SAD, 3.80 Å; details: both partners purified
[4] = target: the molecule itself; assay: as above

## TAAGGTATTACCTAGTAGTACTAAG (double strand) [25 bp copASO-parESO promoter duplex]
[1]
  Kd: 660 nM
[2]
  Kd: 16 nM

## B1
[3]
  binding result: binds

## B2
[4]
  stoichiometry N: 2
